First the molecules themselves.
T1: C5a receptor (C5aR) expressed on the surface of human PMNs (human, UniProt P21730 1-350)
T1 construct: whole, on cells; Endogenous receptor on intact human polymorphonuclear cells; also called C5aRs
T1 sequence (looked up): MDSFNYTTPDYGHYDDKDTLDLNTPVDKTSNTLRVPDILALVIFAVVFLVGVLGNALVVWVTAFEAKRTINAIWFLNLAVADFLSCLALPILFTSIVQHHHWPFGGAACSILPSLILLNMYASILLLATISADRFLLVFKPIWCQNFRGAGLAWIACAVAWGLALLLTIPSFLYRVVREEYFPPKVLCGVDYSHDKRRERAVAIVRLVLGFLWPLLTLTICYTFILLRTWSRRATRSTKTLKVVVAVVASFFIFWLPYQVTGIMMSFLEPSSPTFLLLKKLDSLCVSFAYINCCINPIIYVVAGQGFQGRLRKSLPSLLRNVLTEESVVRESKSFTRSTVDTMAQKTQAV

B1: IPQSLDSWWTSLRRYSFKPMPLaRG (C5a-inactive construct, C-terminal carboxyl group blocked by a Gly residue) (peptide)
peptide: IPQSLDSWWTSLRRYSFKPMPL[dA]RG
notes: Synthetic peptide
B2: natural C5a (ligand, UniProt P01031 678-751, looked up)
chain: TLQKKIEEIAAKYKHSVVKKCCYDGACVNNDETCEQRAARISLGPRCIKAFTECCVVASQLRANISHKDMQLGR
modifications: 125I label on the tracer form used in the competition assay
notes: C5a is only a fragment of it
B3: IPQSLDSWWTSLRVRRYSFKPMPLaR (RVRR furin-sensitive-linked C5a-active construct) (peptide)
peptide: IPQSLDSWWTSLRVRRYSFKPMPL[dA]R
notes: Synthetic peptide; also called RVRR-containing construct
B4: IPQSLDSWWTSLYSFKPMPLaR (HBsAg CTL epitope attached directly to N-terminus of the C5a agonist) (peptide)
peptide: IPQSLDSWWTSLYSFKPMPL[dA]R
notes: Synthetic peptide; also called C5a-active construct without linker
B5: IPQSLDSWWTSLRRYSFKPMPLaR (double-Arg-linked C5a-active construct) (peptide)
peptide: IPQSLDSWWTSLRRYSFKPMPL[dA]R
notes: Synthetic peptide; also called RR-containing construct
B6: YSFKPMPLa[…] (C5a-inactive construct, C-terminus of agonist blocked by the HBsAg CTL epitope) (peptide)
peptide: YSFKPMPL[dA]RRRIPQSLDSWWTSL
notes: Synthetic peptide
B7: C5a C-terminal decapeptide agonist analog YSFKPMPLaR (peptide)
peptide: YSFKPMPL[dA]R
notes: Synthetic peptide; also called C5a agonist; peptide (2)

Where no end group is shown, it is not given here. [ ]: non-standard residue; d: D form.

The first assay deals with T1, C5a receptor (C5aR) expressed on the …. Kind of assay: competition with 125I-C5a on intact human PMNs (column headed EC50; 50% inhibition of 125I-C5a binding).
For the molecule B1, the IC50 is 17 µM.

B2 had an IC50 of 0.0004 µM.

As for B3, the IC50 amounted to 0.529 µM.

For the molecule B4, the IC50 came out at 3.69 µM.

For B5, the IC50 was determined as 0.416 µM.

Consider B6, for which the IC50 came to 465 µM.

Regarding B7, the concentration for half-maximal inhibition (IC50) was determined as 2.34 µM.

For a further assay the target is unchanged. Kind of assay: cell-based or functional assay.
For B1, the “EC50, MPO release from human PMNs” value amounted to 2.56 µM and the “pD2, MPO release from human PMNs” value was 5.59 -log EC50 (M).

Consider B2, for which the “EC50, MPO release from human PMNs” value was 0.003 µM.

For the molecule B3, the “EC50, MPO release from human PMNs” value came to 2.15 µM and the “pD2, MPO release from human PMNs” value was 5.61 -log EC50 (M).

In the case of B4, the “EC50, MPO release from human PMNs” value stood at 1.58 µM and the “pD2, MPO release from human PMNs” value was 5.8 -log EC50 (M).

As to B5, the “EC50, MPO release from human PMNs” value worked out at 0.54 µM and the “pD2, MPO release from human PMNs” value is 6.27 -log EC50 (M).

With B6, the “EC50, MPO release from human PMNs” value is > 1000 µM.

For another assay the target is unchanged. The assay is described as follows: cell-based or functional assay. This is another data set of the same source.
For the molecule B1, the “EC50, smooth muscle contraction of human umbilical artery” value (“EC50, smooth muscle contraction” for short) worked out at 6.78 µM and the “pD2, smooth muscle contraction of human umbilical artery” value (“pD2, smooth muscle contraction” below) was 5.17 -log EC50 (M).

Take B2: the “EC50, smooth muscle contraction” value is 0.002 µM.

As for B3, the “EC50, smooth muscle contraction” value worked out at 0.18 µM and the “pD2, smooth muscle contraction” value was 6.67 -log EC50 (M).

With B4, the “EC50, smooth muscle contraction” value amounted to 0.21 µM and the “pD2, smooth muscle contraction” value is 6.68 -log EC50 (M).

As to B5, the “EC50, smooth muscle contraction” value was 0.161 µM and the “pD2, smooth muscle contraction” value was 6.79 -log EC50 (M).

As for B6, the “EC50, smooth muscle contraction” value was 39.4 µM and the “pD2, smooth muscle contraction” value is 4.41 -log EC50 (M).

As for B7, the “EC50, smooth muscle contraction” value was found to be 0.01 µM.

The target is the same in the next assay. The assay is described as follows: competition with 125I-C5a on intact human PMNs.
Procedure: Statistical analysis of the values obtained from pharmacologic assays was performed using one-way analysis of variance (ANOVA).
Take B1: the “pD2 (-log IC50 (M))” value was 4.77 -log IC50 (M).

As for B2, the “pD2 (-log IC50 (M))” value was 9.43 -log IC50 (M).

Take B3: the “pD2 (-log IC50 (M))” value is 6.28 -log IC50 (M).

Regarding B4, the “pD2 (-log IC50 (M))” value is 5.43 -log IC50 (M).

As for B5, the “pD2 (-log IC50 (M))” value was 6.38 -log IC50 (M).

For B6, the “pD2 (-log IC50 (M))” value is 3.33 -log IC50 (M).

For the molecule B7, the “pD2 (-log IC50 (M))” value was 5.63 -log IC50 (M).

What is called IC50 is the midpoint of a concentration-inhibition curve.

Values taken from patent US20070031445A1 (BOARD OF REGENTS OF THE UNIVERSITY OF NEBRASKA, published 2007).
